Test results taken from article doi:10.1101/2020.12.01.406983 (bioRxiv, 2020).

Target: canine parvovirus (CPV) capsid (Canine parvovirus type 2, strain CPV-d …, UniProt P17455)
Assay: cryo-EM structure

canine parvovirus (CPV) capsid, sequence (P17455 whole entry, looked up): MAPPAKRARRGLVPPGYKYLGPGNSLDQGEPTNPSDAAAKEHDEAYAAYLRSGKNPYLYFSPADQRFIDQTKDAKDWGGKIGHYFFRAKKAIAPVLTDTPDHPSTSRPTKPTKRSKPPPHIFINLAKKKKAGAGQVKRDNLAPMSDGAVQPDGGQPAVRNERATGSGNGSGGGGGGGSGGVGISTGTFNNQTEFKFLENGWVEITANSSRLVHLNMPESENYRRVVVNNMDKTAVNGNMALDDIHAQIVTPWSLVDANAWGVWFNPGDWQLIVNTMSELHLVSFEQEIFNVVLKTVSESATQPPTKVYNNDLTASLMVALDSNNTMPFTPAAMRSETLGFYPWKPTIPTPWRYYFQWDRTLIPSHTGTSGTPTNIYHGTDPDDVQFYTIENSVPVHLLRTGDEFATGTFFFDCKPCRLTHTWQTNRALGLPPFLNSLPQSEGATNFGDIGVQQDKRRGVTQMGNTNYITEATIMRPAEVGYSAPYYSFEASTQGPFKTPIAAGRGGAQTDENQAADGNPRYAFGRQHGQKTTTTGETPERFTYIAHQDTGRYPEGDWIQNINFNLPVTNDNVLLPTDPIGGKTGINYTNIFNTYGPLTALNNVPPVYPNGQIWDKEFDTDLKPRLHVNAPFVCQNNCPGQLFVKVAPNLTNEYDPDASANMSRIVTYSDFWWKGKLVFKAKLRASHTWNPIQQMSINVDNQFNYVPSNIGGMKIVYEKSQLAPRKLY

B1: Fab of MAb14 (Fab 14) (Fab, V domains shown)
VH: AVHLQGTELVKPGASAGVKLSCKASGYTFTNYDMNWVRQRPEQGLEWIGWIFPGDGSTRYNEKFKGKATLTTDKSSSTAYQLNRLTSEDSAVYFCARRGSHGSYSFAYWGQGTLVTVSG
VL: DIVMTQSHKFMSTSVGDRVSITCKASQDVNTALAWYQQIPGQSPKLLIYSASNRYTGVPDRFTASGSGTDFTFTISSVQAEDLALYYCQQHYTTPWTFGGGTKLEIK
stoichiometry N: ~60 Fab 14 molecules per capsid
